Experimental data reported in US20240409647A1 (SINOMAB BIOSCIENCE, published 2024).

Key:
[1] = target: T1, human IL-17 receptor subunit D (human, UniProt Q8NFM7 28-299, limits assumed); experiment: ELISA, coated receptor; SM17 at 0.00064 µg/mL; well 2
T1 construct: also called IL17RD; hIL 17RD
T1 sequence (looked up): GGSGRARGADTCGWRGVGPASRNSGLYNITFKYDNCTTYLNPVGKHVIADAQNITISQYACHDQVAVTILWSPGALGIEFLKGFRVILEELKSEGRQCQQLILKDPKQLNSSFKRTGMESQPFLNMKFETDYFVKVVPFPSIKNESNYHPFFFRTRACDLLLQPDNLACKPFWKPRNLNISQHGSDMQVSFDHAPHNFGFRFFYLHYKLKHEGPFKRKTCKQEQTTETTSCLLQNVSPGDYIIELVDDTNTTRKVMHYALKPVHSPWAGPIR

[2] = target: T2, human IL-17 receptor subunit A (human, UniProt Q96F46 33-320); experiment: as above
T2 construct: also called IL17RA; hIL17RA

[3] = target: T3, human IL-17 receptor subunit C (human, UniProt Q8NAC3-2 21-467, limits assumed); experiment: as above
T3 construct: also called IL17RC; hIL17RC
T3 sequence (looked up): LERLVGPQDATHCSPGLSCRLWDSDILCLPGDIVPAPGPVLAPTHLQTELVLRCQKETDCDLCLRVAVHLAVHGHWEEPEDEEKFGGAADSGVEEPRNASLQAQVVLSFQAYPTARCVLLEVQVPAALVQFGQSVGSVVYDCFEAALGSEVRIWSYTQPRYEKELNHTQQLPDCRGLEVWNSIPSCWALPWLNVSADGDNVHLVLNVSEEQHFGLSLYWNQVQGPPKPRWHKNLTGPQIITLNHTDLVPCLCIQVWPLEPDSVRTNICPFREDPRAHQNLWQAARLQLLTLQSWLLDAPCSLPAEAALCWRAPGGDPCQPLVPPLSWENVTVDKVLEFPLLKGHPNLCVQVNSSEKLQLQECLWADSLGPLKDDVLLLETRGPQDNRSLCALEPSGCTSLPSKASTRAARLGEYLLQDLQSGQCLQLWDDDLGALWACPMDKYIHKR

[4] = target: T4, human IL-17 receptor subunit E (human, UniProt Q8NFR9 24-454, limits assumed); experiment: as above
T4 construct: also called hIL17RE
T4 sequence (looked up): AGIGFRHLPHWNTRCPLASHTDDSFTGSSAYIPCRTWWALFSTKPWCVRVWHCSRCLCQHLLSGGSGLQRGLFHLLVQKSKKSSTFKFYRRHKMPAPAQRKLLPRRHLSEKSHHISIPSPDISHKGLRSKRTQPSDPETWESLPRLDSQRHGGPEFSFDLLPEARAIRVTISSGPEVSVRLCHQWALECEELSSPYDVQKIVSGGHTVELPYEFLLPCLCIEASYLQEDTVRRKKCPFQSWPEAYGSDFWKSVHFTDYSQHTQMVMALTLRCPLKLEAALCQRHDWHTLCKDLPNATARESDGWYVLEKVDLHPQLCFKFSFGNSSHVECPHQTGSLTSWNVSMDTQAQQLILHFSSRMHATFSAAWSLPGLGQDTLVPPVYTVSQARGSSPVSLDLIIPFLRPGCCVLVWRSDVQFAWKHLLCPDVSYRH

[5] = target: T5, human IL-17RB protein (recombinant, R&D systems) (human); experiment: as above
T5 construct: Bought protein; also called hIL17RB
T5 sequence (Q9NRM6 whole entry, looked up): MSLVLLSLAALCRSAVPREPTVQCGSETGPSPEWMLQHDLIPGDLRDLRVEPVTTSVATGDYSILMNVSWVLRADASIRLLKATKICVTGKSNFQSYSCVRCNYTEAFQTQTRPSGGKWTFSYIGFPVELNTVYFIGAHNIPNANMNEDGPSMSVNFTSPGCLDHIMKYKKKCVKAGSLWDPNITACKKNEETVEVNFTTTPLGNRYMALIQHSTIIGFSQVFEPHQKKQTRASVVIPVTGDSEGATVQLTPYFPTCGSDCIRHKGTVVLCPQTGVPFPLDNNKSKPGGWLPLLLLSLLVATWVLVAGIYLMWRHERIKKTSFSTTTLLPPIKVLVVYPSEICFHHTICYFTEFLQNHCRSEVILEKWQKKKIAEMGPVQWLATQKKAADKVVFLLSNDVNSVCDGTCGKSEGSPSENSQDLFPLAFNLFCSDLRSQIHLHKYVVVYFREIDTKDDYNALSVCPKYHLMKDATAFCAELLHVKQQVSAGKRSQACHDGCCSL

[6] = target: T6, cynomolgus monkey IL-17RB protein (recombinant, R&D systems) (cynomolgus monkey, UniProt A0A2K5TUK1 18-289); experiment: BLI (Octet RED96), SM17 captured via anti-human Fab CH1, IL17RB in solution; trial 1
T6 construct: also called cynomolgus IL17RB; Cyno-IL17RB
T6 sequence: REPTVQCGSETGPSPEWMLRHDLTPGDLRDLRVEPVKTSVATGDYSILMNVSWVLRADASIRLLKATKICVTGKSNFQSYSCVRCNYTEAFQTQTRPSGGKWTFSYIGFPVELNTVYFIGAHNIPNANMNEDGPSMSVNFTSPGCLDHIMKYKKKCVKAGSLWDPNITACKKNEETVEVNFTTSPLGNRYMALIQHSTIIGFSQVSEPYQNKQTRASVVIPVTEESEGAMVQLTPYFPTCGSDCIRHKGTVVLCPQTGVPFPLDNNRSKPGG
Source text: (§1) Irrelevant antibody (SM03, anti-human CD22 chimeric IgG1 antibody, SinoMab BioScience Limited) was used as the control reference.

[7] = target: T5, human IL-17RB protein (recombinant, R&D …); experiment: as above
Source text: as §1

[8] = target: T2, human IL-17 receptor subunit A; experiment: ELISA, coated receptor; SM17 at 0.4 µg/mL; well 1
[9] = target: T3, human IL-17 receptor subunit C; experiment: ELISA, coated receptor; SM17 at 0.4 µg/mL; well 1
[10] = target: T4, human IL-17 receptor subunit E; experiment: ELISA, coated receptor; SM17 at 0.4 µg/mL; well 1
[11] = target: T5, human IL-17RB protein (recombinant, R&D …); experiment: ELISA, coated receptor; SM17 at 0.4 µg/mL; well 1

B1: SM17 (antibody, human IgG4 S228P, kappa, V domains shown)
VH: QVQLVQSGAEVKKPGASVKVSCKASGYTFISYWMNWVRQAPGQGLEWMGRIDPYDSEIQYNQKFKDRVTMTRDTSISTAYMELSRLRSDDTAVYYCARSGGFDWFAYWGQGTLVTVSS
VL: DIQMTQSPSSLSASVGDRVTITCRASENINSNLAWYQQKPGKAPKLLLYDVTNLADGVPSRFSGSGSGTDYTLTISSLQPEDFATYYCQHFWGPPYTFGGGTKVEIKR
notes: other paragraphs and claim 15 call the same entries VH and VL; also called humanized anti-IL17RB monoclonal antibody
OD 450 nm Absorption [1]: 0.02 OD450 | OD 450 nm Absorption [2]: 0.05 OD450 | OD 450 nm Absorption [3]: 0.08 OD450 | OD 450 nm Absorption [4]: -0.16 OD450 | OD 450 nm Absorption [5]: 0.07 OD450 | Kd [6]: 0.852 nM | koff [6]: 2.73e-05 s⁻¹ | kon [6]: 32100 M⁻¹ s⁻¹ | Kd [7]: 0.194 nM | koff [7]: 4.3e-05 s⁻¹ | kon [7]: 222000 M⁻¹ s⁻¹ | OD 450 nm Absorption [8]: 0.21 OD450 | OD 450 nm Absorption [9]: 0.25 OD450 | OD 450 nm Absorption [10]: 0.08 OD450 | OD 450 nm Absorption [11]: 1.26 OD450
